Reference: the DeepSol protein solubility set

assay: soluble on expression in E. coli; label from the status in PepcDB or PDB records

Q: For “MIQIAIAGSSDEKPLEVAVRKTKEFIKALPSDVILMTGGRGGIMEVASEEFRKKGGIVVGILPYSDNGNRFNTVRVKTGLNPVERSGVLIESADVLVVLGGGVGTMIEALMAYNLGIPVIVITGTGYASDRLMELAKEGYFDHKRIVKVIFTDDPKEAAKLALKIGGERSEARDI”, which “soluble on expression in E. coli” value is on record?
A: soluble

Q: Which “soluble on expression in E. coli” value does the source give for “MIQKGCTPIEEGSDSEPQAETVPEEADYEAVPVEAYGLAMLRGMGWKPGKGIGNTFSQVVKPRVNSIRPKGLGLGANRMEAQDLASVGSHHPPRPDGDRENDKEGQPQGLMHGRAVVVLSGPYRGLYGKVEGLDPDNVRAMVRLAVGNRIVTVSEYCLRPVSQQEFDSHTSKPGHVSQTSTEQQNRATGTASSLKAAQNQEDSKRRQKGSEKKRKHSPDRQDGPVPKTEKAAPRNKHWLHRDLRVRFIDKLHKSGRYYNTKMTIEDVLSPDTCVCRTDEGRVLEDVREDMLETLIPKGEGHRVMVVLGPHAGKVGLLRSRDRAQSHALVQLRRENQVVELHYNAICQYMGPGDSDED” here?
A: soluble

Q: For “MIQNDYSIYQYHVEFEPTVDSKATRENMLRQPSVTVEIGKHFVFDGMILYLKEEWDQNQMIEVQHPNDNSLICIRFKKTNRFLVDDPQTINIFNTIIRRSFDAMKLTQIGRNYFDWDNSRALRKELRSCQNNRQRVQEKMNEVYGGSTIITRYNNKLHRFTRLDNEITPLSKFQKDGEQIILKEYFKNQYDIDITDDEQFIIISEGKPKQPGEPPQVNYIVPELCFPTGLTDEMRKDFKMMKEIAKHTRMSPQQRLDETRKLITKLSQNQTMMECFQYWGISLGQDLANVQARVLKSEPLQGKRQYEGKQAEWARGVKECGIYRGSNMTNWIVIGPGSGNSGLLAQKFIAEARNLGRTLQVQLGEPMCVKINGISPNDYLEGLKAAIKSVDGEEIHMLVVMLADDNKTRYDSLKKYLCVECPIPNQCVNLRTLAGKSKDGGENKNLGSIVLKIVLQMICKTGGALWKVNIPLKSTMIVGYDLYHDSTLKGKTVGACVSTTSNDFTQFYSQTRPHENPTQLGNNLTHFVRKSLKQYYDNNDKTLPSRLILYRDGAGDGQIPYIKNTEVKLVRDACDAVTDKAAELSNKVQEKIKLAFIIVTKRVNMRILKQGSSSKSAINPQPGTVVDTTVTRPERMDFYLVPQFVNQGTVTPVSYNIIHDDTGLGPDKHQQLAFKLCHLYYNWQGTVRVPAPCQYAHKLAFLTAQSLHDDANGYLRDKLFFL”, which “soluble on expression in E. coli” value is on record?
A: not soluble

Q: Which “soluble on expression in E. coli” value does the source give for “MIRFLGNIEVRADAKGRVFIPATFRKQLQAASEERLIMRKDVFQDCLTLYPESVWNEELNELRSRLNKWNSKHQLIFRQFVSDVEVVTPDSNGRILIPKRYLQICNIRGDIRFIGIDNKIEIWAKERAEQPFMSPEEFGAALEEIMNDENRQDGER” here?
A: not soluble

Q: Which “soluble on expression in E. coli” value does the source give for “MIRKNKWLRFQTVCRYIPLSLKNHNRLVIFVCQRIEWRYIFSTNTGHPLKNTCEMTGTDFSTDGLMRRYVTGGNNQWHTVASLHMTIMMNRIGTVADRQPKARKVKHGEMTLEHHHHHH” here?
A: not soluble

Q: Which “soluble on expression in E. coli” value does the source give for “MIRLSEQSPLGTGRHRKCYAHPEDAQRCIKIVYHRGDGGDKEIRRELKYYAHLGRRLKDWSGIPRYHGTVETDCGTGYVYDVIADFDGKPSITLTEFAEQCRYEEDIAQLRQLLKQLKRYLQDNRIVTMSLKPQNILCHRISESEVIPVVCDNIGESTLIPLATWSKWCCLRKQERLWKRFIAQPALAIALQKDLQPRESKTLALTSREA” here?
A: soluble

Q: With “MIRLTELKLPLNHEEGALLDAIAAKLKIPAQQVLSFTLFRRGYDARKKSDIQLIYTVDVEVANPEKLLAKFSKDQHVRPTPDMSYKFVAKAPENLPERPLVIGFGPCGLFAGLVLAQMGFNPIIVERGKEVRERTKDTFGFWRKRTLNTESNVQFGEGGAGTFSDGKLYSQVKDPNFYGRKVITEFVEAGAPEEILYVSKPHIGTFKLVTMIEKMRAKIIELGGEIRFSTRVDDIHMQDGQITGVILSNGEEIQSRHVVLAVGHSARDTFEMLHARGVYMEAKPFSVGFRIEHKQSMIDEARFGPSAGHPILGAADYKLVHHCKNGRTVYSFCMCPGGTVVAATSEEGRVVTNGMSQYSRAERNANSAIVVGISPEQDYPGDPLAGIRLQRELETNAYKLGGETYDAPAQKIGDFLKGRNPSELGDVQPSFTPGIKLTDLSKALPAFAVEAIREAIPEFDRQIKGFASEDGLLTGVETRTSSPVCIKRGKDFQSINLKGFYPAGEGAGYAGGILSAGIDGIKVAEAVARDMMARFAGELEHHHHHH” as the sequence, how does the “soluble on expression in E. coli” value read?
A: soluble

Q: Which “soluble on expression in E. coli” value does the source give for “MIRNKAFVVRLYPNAAQTELINRTLGSARFVYNHFLARRIAAYKESGKGLTYGQTSSELTLLKQAEETSWLSEVDKFALQNSLKNLETAYKNFFRTVKQSGKKVGFPRFRKKRTGESYRTQFTNNNIQIGEGRLKLPKLGWVKTKGQQDIQGKILNVTVRRIHEGHYEASVLCEVEIPYLPAAPKFAAGVDVGIKDFAIVTDGVRFKHEQNPKYYRSTLKRLRKAQQTLSRRKKGSARYGKAKTKLARIHKRIVNKRQDFLHKLTTSLVREYEIIGTEHLKPDNMRKNRRLALSISDAGWGEFIRQLEYKAAWYGRLVSKVSPYFPSSQLCHDCGFKNPEVKNLAVRTWTCPNCGETHDRDENAALNIRREALVAAGISDTLNAHGGYVRPASAGNGLRSENHATLVVLEHHHHHH” here?
A: soluble

Q: Which “soluble on expression in E. coli” value does the source give for “MIRTVMDFKFVLRLLEANQFENEVVEYKKNNKDFIVLGKNISALSNTAALLGIDKAYIIFGIEDGTLNIVGTNFKPKQEKKGNEELESWLHKVLKPNIEFKIHEITEKEIRLVVFEIEATKISPIKFEEKAYIRIGSNRKELDKYPEKEKKLWQVLSGFSFENEIAKSNLNIQDIYDLLDYSKCFDMLDISYDNYSSDEYIIEKLIEHGLVKNLNDSFAITNLGAILFAKDLTKFKGLNRKRIRFIRYQGKNKIHTLEELEGRKGYAIGFQGLISYIMQYVPKNEVIENAIRKDTTLYPEIAIRELVANAIIHQDFTINGRNPMIEMYSDRIEITNNGKSLIDIKRLIDMPSKSRNDKLANLMRIMGICEERGSGVDKVIDSVEAYQLPAPDFINNEDYFQAILFSHMPLEDMTKQDRIRATYQHCCLKWASREAMTNASLRARFKIGDKQHSKASKIISDTLEAGLIKQQDPENKSTKHVKYVPFFV” here?
A: not soluble

Q: With “MIRVASLIKAMSDTQLQIAQGASPLTGLPGNSAIEQEIKRRLNSGNAFGMIYADLNQFKAFNDTYGFQYGDSIIKLLGKILMQDSLKADDLAFVGHVGGDDFIILTTQNVTKTLGETILLSFQEQLSAMQGAQDLSLALAGLIIYPHTAWTPATLSERIAAVKREAKKAHCNYFLLRELEHHHHHH” as the sequence, how does the “soluble on expression in E. coli” value read?
A: not soluble

Q: Which “soluble on expression in E. coli” value does the source give for “MISKGFSTQTERINILKAQILNAKPCVESERAILITESFKQTEGQPAILRRALALKHILENIPITIRDQELIVGSLTKEPRSSQVFPEFSNKWLQDELDRLNKRTGDAFQISEESKEKLKDVFEYWNGKTTSELATSYMTEETREAVNCDVFTVGNYYYNGVGHVSVDYGKVLRVGFNGIINEAKEQLEKNRSIDPDFIKKEKFLNSVIISCEAAITYVNRYAKKAKEIADNTSDAKRKAELNEIAKICSKVSGEGAKSFYEACQLFWFIHAIINIESNGHSISPARFDQYMYPYYENDKNITDKFAQELIDCIWIKLNDINKVRDEISTKHFGGYPMYQNLIVGGQNSEGKDATNKVSYMALEAAVHVKLPQPSLSVRIWNKTPDEFLLRAAELTREGLGLPAYYNDEVIIPALVSRGLTLEDARDYGIIGCVEPQKPGKTEGWHDSAFFNLARIVELTINSGFDKNKQIGPKTQNFEEMKSFDEFMKAYKAQMEYFVKHMCCADNCIDIAHAERAPLPFLSSMVDNCIGKGKSLQDGGAEYNFSGPQGVGVANIGDSLVAVKKIVFDENKITPSELKKTLNNDFKNSEEIQALLKNAPKFGNDIDEVDNLAREGALVYCREVNKYTNPRGGNFQPGLYPSSINVYFGSLTGATPDGRKSGQPLADGVSPSRGCDVSGPTAACNSVSKLDHFIASNGTLFNQKFHPSALKGDNGLMNLSSLIRSYFDQKGFHVQFNVIDKKILLAAQKNPEKYQDLIVRVAGYSAQFISLDKSIQNDIIARTEHVM” here?
A: soluble

Q: Which “soluble on expression in E. coli” value does the source give for “MISLVLGLLTSKLHYEQTYYTEIAKRARLYHNVVAQFTPFCIDSKTDLVSGLIYDTDTGKWKEQTFPIPSYIYDRYSFHEETDFEKAKSIIHSLHNRPSTTFLNNTLINLSELHDLFLTNKKLSPYIPKFEVATIQNIFKLLLKSKDIIIRPTNIHSKDNLYRVAYKNKTFHIDTVNEKYHTSLSIKRTDEFISWCKSNIRSSRYIVHTMLQPPNQLTYPLHIRTILQKNKEQTWNVIGQFIQKSSFPNQLLPSATDDDSLHSFSKIKYVLSSTGVQLLQDALHDIINEVFQTLDQSYSSLFELELSTIMDQKGAIWLMYVNTIPPYEQYIRHSDSLAEKIFHGPLKFSRFTP” here?
A: not soluble

Q: For “MISRVGADLGLSATAHVPRTDEPQKAKDFTTDQEVRWCPGCGDYVILATIRSFLPELGLRRENLMFVSGIGCSSRFPYYLDTYGLHSIHGRAPAIATGLAVTRPDLSVWVVTGDGDALSIGGNHLIHALRRNVNMTILLFNNRIYGLTKGQYSPTSEVGKVTKSTPLGSVDHPFNTLSLALGAEATFAARAMDSDRKGLTEVLRQAAAHRGTSFVEIYQDCPIFNDGSFDVLRKDGSEQRLIPLTHGEPIVFGGAGEYCVVRSGFGLKVVATADVDRDDIVVHDAHTDDPDYAYALSRLSDQDLTHTVTGVFRSVTRDTYDDMVRLQNEIAQEKDPVDDGSLQRLLTGHDTWTVE”, which “soluble on expression in E. coli” value is on record?
A: not soluble

Q: With “MISSNSSSTSLNVETDYPTNGKKPLKEGSVQLTSLSTLLSHHRYFFLYHETLIISKQKGACSYKLKEKLRLEKVWIASSNTADSFLIGWPFTNYLVHFRNTEEKDEWFELLSCCVQQCLRPLFTTISMEINVRGRKQTIRRRVDNGKKSGEIVVDTAGDLGLPHTSYQLTLSFGDNSHRQLQGPENVYVAIMSEIERQGTRLSESQKQALDTCPIANCRLILSTIKSTSGPSAKQLVNSIKKKVLTRTDSRSIFGKGLNGPTPPQPIMTIVDHLRMDGFDAEGIFRKSPKQSTFKELKCELDKGVVPDFHKYNTHVLASILKEYLRSIPGKILLSGNYELWMREIADEPNTEKKVSCCRALLSHLPTSHSILLANVLKLLNKISNSPSSKMNASSLSVCLAPSFLESPDPMEGGKKIPPLIEFLISHAAQVMPGFSTDNVFAIMTSPMVDHNANMVCSPAPSSSHSDDGGSSQKTPIIEELNDADDATSQSSLAESDLPDEPRGTSAHLETISEISEPPTNDERLVFSSSEDEDDDDEDELRVYRPKSSTSTSSCFARTSFVSETLKTSADDGDKGLNKETPRSPCLKRIHFQRTEAQHRNKEGNIKLDFEALKFHRPSVRKSSLEEVARKNSAEFFHHSREPSDAAVTPTPPKNGSTMRKESREEATQTADCGLPHISSNDDSDSRFPAFKSSSVAMLTEPYKSSSSSSSSTSSIPSDPAPRPYFLKEEYTSLANKPTVQVAPFSQEPSLKTINDRLNALRQNSILAQEVPQEPVMTSSRLRSEATKSLTNSPIMPRSYGGSLMQKDREEHSFVADDFYKASSRKPELQRSSSQRGLTSMNNNNNSTKQIYGARPSSLKTPRRFAGAGGVEACVGMDPLEINWSVSQLKTLFQDTKAPSIDTTYNMN” as the sequence, how does the “soluble on expression in E. coli” value read?
A: not soluble

Q: Which “soluble on expression in E. coli” value does the source give for “MISSTKLSILALALVGAVLARPQFPGGPPPGMSAVPPPIAAVLPPETLARLEAIHADSSLSELEKHKAIDTIMVNLPEEVHDRIPPPPGFAQLPAEVQAQLKTIHRDKNLDFQERQAAIHGVLENLAPEFKRLLPPPPPGFPQRRQ” here?
A: soluble

Q: With “MISVMQQMINNDSPEDSKESITSVQQTPFFWPSAAAAIPSIQGESRSERESETGSSPQLAPSSTGMVMPGTAGMYGFGPSRMPTANEFGMMMNPVYTDFYQNPLASTGWYSYGQPYQFTANYSIPSLDGNLSDITIPTTAGSSAATTPNAAMHLPWAISHDGKKKRQPYKKDQISRLEYEYSVNQYLTNKRRSELSAQLMLDEKQVKVWFQVCYRQYSAESLEIINVNFYLMS” as the sequence, how does the “soluble on expression in E. coli” value read?
A: not soluble
